From US20150160219

How the values were obtained:
[1] = tested on: Indicator molecule of Example 5 with 3 MMP9 cleavage sites (terminal biotin, DNP, FITC)
[2] = tested on: Indicator molecule of Example 4 with 5 MMP9 cleavage sites (ALP first capture region, terminal biotin via PEG)
[3] = tested on: Indicator molecule of Example 4 with 3 MMP9 cleavage sites (ALP first capture region, terminal biotin via PEG)
[4] = tested on: Indicator molecule of Example 5 with 2 MMP9 cleavage sites (terminal biotin, DNP, FITC)
[5] = tested on: Indicator molecule of Example 4 with 2 MMP9 cleavage sites (ALP first capture region, terminal biotin via PEG)
[6] = tested on: Indicator molecule of Example 5 with 4 MMP9 cleavage sites (terminal biotin, DNP, FITC)
[7] = tested on: Indicator molecule of Example 3 (synthetic peptide with MMP-9 sequence, HNE sequence, DNP, fluorescent label and terminal biotin via PEG)
[8] = tested on: Indicator molecule of Example 4 with 7 MMP9 cleavage sites (ALP first capture region, terminal biotin via PEG)
[9] = tested on: Indicator molecule of Example 2 (peptide with one MMP9 cleavage site, first capture region ALP, terminal biotin via polyethylene glycol spacer)

Chain of Matrix Metalloprotease-9 (MMP-9) (Mologic) (chain, as listed by the source): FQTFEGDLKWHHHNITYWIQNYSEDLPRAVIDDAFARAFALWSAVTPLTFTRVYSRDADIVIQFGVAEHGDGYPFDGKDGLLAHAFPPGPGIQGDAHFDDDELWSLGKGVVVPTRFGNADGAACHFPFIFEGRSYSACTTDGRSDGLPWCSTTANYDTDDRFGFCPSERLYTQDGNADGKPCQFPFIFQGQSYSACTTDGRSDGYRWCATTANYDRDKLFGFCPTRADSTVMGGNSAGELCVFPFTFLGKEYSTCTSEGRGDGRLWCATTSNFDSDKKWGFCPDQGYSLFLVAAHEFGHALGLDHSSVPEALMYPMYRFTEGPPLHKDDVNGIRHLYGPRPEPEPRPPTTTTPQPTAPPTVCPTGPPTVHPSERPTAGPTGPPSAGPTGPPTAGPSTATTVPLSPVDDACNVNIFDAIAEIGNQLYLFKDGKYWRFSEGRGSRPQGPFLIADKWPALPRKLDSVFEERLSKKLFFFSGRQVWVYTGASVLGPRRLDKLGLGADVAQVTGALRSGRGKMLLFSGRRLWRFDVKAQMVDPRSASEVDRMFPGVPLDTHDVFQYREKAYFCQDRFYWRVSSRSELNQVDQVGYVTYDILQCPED

Matrix Metalloprotease-9 (MMP-9) (Mologic)
cut-off of the assay [1]: The cut-off with all indicator molecules was below <31.25 ng/ml
test line signal at 31.25 ng/ml MMP9 [1]: 1.45 reader units
test line signal at 62.5 ng/ml MMP9 [1]: 2.56 reader units
test line signal at 125 ng/ml MMP9 [1]: 3.1 reader units
test line signal at 250 ng/ml MMP9 [1]: 5.58 reader units
test line signal at 500 ng/ml MMP9 [1]: 9.04 reader units
test line signal at 1000 ng/ml MMP9 [1]: 11.6 reader units
test line signal at 2000 ng/ml MMP9 [1]: 17.9 reader units
test line signal at 31.25 ng/ml MMP9 [2]: 1.04 reader units
test line signal at 62.5 ng/ml MMP9 [2]: 1.36 reader units
test line signal at 125 ng/ml MMP9 [2]: 2.14 reader units
test line signal at 250 ng/ml MMP9 [2]: 5.01 reader units
test line signal at 500 ng/ml MMP9 [2]: 9.93 reader units
test line signal at 1000 ng/ml MMP9 [2]: 16.8 reader units
test line signal at 2000 ng/ml MMP9 [2]: 20.5 reader units
test line signal at 31.25 ng/ml MMP9 [3]: 0 reader units
test line signal at 62.5 ng/ml MMP9 [3]: 0 reader units
test line signal at 125 ng/ml MMP9 [3]: 0 reader units
test line signal at 250 ng/ml MMP9 [3]: 0.92 reader units
test line signal at 500 ng/ml MMP9 [3]: 3.84 reader units
test line signal at 1000 ng/ml MMP9 [3]: 7.57 reader units
test line signal at 2000 ng/ml MMP9 [3]: 10.5 reader units
cut-off of the assay [4]: The cut-off with all indicator molecules was below <31.25 ng/ml
test line signal at 31.25 ng/ml MMP9 [4]: 1.36 reader units
test line signal at 62.5 ng/ml MMP9 [4]: 1.78 reader units
test line signal at 125 ng/ml MMP9 [4]: 3.46 reader units
test line signal at 250 ng/ml MMP9 [4]: 5.44 reader units
test line signal at 500 ng/ml MMP9 [4]: 6.87 reader units
test line signal at 1000 ng/ml MMP9 [4]: 5.48 reader units
test line signal at 2000 ng/ml MMP9 [4]: 12.8 reader units
test line signal at 31.25 ng/ml MMP9 [5]: 0.68 reader units
test line signal at 62.5 ng/ml MMP9 [5]: 0.32 reader units
test line signal at 125 ng/ml MMP9 [5]: 0.57 reader units
test line signal at 250 ng/ml MMP9 [5]: 1.99 reader units
test line signal at 500 ng/ml MMP9 [5]: 3.48 reader units
test line signal at 1000 ng/ml MMP9 [5]: 12 reader units
test line signal at 2000 ng/ml MMP9 [5]: 11.8 reader units
cut-off of the assay [6]: The cut-off with all indicator molecules was below <31.25 ng/ml
test line signal at 31.25 ng/ml MMP9 [6]: 2.69 reader units
test line signal at 62.5 ng/ml MMP9 [6]: 2.94 reader units
test line signal at 125 ng/ml MMP9 [6]: 5.63 reader units
test line signal at 250 ng/ml MMP9 [6]: 10.1 reader units
test line signal at 500 ng/ml MMP9 [6]: 11.2 reader units
test line signal at 1000 ng/ml MMP9 [6]: 16.3 reader units
test line signal at 2000 ng/ml MMP9 [6]: 16.2 reader units
cut-off of the assay [7]: The cut-off with all indicator molecules was below <31.25 ng/ml
detectable limit of the lateral flow cleavage assay [7]: approximately 125-250 ng/ml
test line signal at 31.25 ng/ml MMP9 [7]: 1.37 reader units
test line signal at 62.5 ng/ml MMP9 [7]: 1.28 reader units
test line signal at 125 ng/ml MMP9 [7]: 2.01 reader units
test line signal at 250 ng/ml MMP9 [7]: 3.34 reader units
test line signal at 500 ng/ml MMP9 [7]: 3.73 reader units
test line signal at 1000 ng/ml MMP9 [7]: 4.33 reader units
test line signal at 2000 ng/ml MMP9 [7]: 8.7 reader units
sensitivity of the assay [8]: <31.25 ng/ml for an indicator molecule having 7 cleavage sites
test line signal at 31.25 ng/ml MMP9 [8]: 2.27 reader units
test line signal at 62.5 ng/ml MMP9 [8]: 2.81 reader units
test line signal at 125 ng/ml MMP9 [8]: 3.25 reader units
test line signal at 250 ng/ml MMP9 [8]: 6.19 reader units
test line signal at 500 ng/ml MMP9 [8]: 9.31 reader units
test line signal at 1000 ng/ml MMP9 [8]: 21.3 reader units
test line signal at 2000 ng/ml MMP9 [8]: 25.3 reader units
detectable limit of the lateral flow cleavage assay [9]: approximately 250-500 ng/ml
sensitivity of the assay [9]: 250-500 ng/ml MMP9, seen with an indicator molecule having 1 cleavage site
test line signal at 31.25 ng/ml MMP9 [9]: 0 reader units
test line signal at 62.5 ng/ml MMP9 [9]: 0 reader units
test line signal at 125 ng/ml MMP9 [9]: 0 reader units
test line signal at 250 ng/ml MMP9 [9]: 0 reader units
test line signal at 500 ng/ml MMP9 [9]: 1.93 reader units
test line signal at 1000 ng/ml MMP9 [9]: 4.52 reader units
test line signal at 2000 ng/ml MMP9 [9]: 8 reader units
